Experimental data: the nanobody polyreactivity screen of Harvey et al. (2022)

Experiment: yeast display, Sf9 membrane polyspecificity reagent, FACS + sequencing; frameworks hold sequencing errors
Procedure, shortened: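 A synthetic nanobody library was expressed on Saccharomyces cerevisiae BJ5465 by galactose induction for 36–48 hours. The library was stained for 1 hour at 4 °C with 10% biotinylated, detergent-solubilized Sf9 membrane reagent and enriched with streptavidin microbeads before FACS. Low and high (top ~1%) gates were set on anti-HA fluorescence for expression and streptavidin fluorescence for reagent binding, and each polyreactivity label reflects the gate of origin.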

Sequence	polyreactivity (PSR sort gate)
QVQLVESGGGLVQAGGSLRLSCAASGSIFVSYAMGWYRQAPGKEREFVAAITRSGGSTYYADSVKGRFTISRDNAKNTVYLQMNSLKPEDTAVYYCAARSYLGAYRRYYWGQGTQVTVSS	high polyreactivity
QVQLVESGRGLFQAGGSLRISCAASGSTYQFYAMGWYRQAPGIERELVASIRVRSGTTYYADSVKGRFTISRDNAKNTVYLQMNSLKPEDTAVYYCASGRPYYGRKYDYWGQGTQVTVSS	high polyreactivity
QVQLVESGGGLCQAGGSLRLSCAASGRTFYKNTMGWYRQAPGKERELVAAISIRGGSTYFADTVKGRFTISRDNAKNTFYLQMNSLKPEDTAVYYCNVVYQKAARIVDFDYWGQGTQVTLSS	high polyreactivity
HVHLVESGGGLVQAGGRLRLTCAASGRTFQKYAMGWYREAPRKERELVAAITTSGGSTYYADSVKGRFTISRDYAKYTVYLQMNSLKPEDTAVYYCNKAYAYAGHDYDWGQGTKVTVSS	high polyreactivity
QVQLVESGGGLVQAGGSLRLSCAASGLTFSYYAMGWYRQAPGKERELVAAISGRGSTYYADSVKGRFTISRDNAKNTVYLQMNSLKPEDTAVYYCNAYGRFGLYDYWGQGTQVTVSS	high polyreactivity
QVQLVESGGGLVQAGGSLRLSCAASGIFAYYVMGWYRQAPGKERELVADISRGGSTNYADSVKGRFTISRDNAKNTVYLQMISLKPEDSAVYYCNARSYYPWEGYDYWGQGTQVTVSS	low polyreactivity
QVQLVESGGGLVQAGGSLRLSCAASGITFSYNAMGWYRQAPGKERELVAAIRVGDGSTYYADSVKGRFTISRDNAKNTVYLQMNSLKPEDTAVNYCNARYLRLRYPYTDEYNYWGQGTQVTVSS	low polyreactivity
QVQLVESGGALVQAGGSLRLNCAASGRIFVYNDMGWYRQAPGNERDLVAAISSVGTTYYADSVKGRFTISRDNAKFTVYLQMKTLKPVETAVYDCDVTRYHSPPRYYFWGQGSQVTVSS	low polyreactivity
QVQLQERAGGLVQAGGSLRQSCAASGYRSLAQTIGWYRQAPGKEREFVASIALGSSTYYTDSVKGSFTISRDNAKTTVYLQMNSLKPEATAVYYCNARDDVYLITPYFLVYVNLDYWGQGTQVTVSS	low polyreactivity
QVQLLESWGGLVQAGGSLRLSCAASGRTSTRNAMGWSRQAPGKERELVAAISWSGGRTHYADSVKWRFTISRDNAMNYVYYQMNSLKQEATAVYYCAAAYTGGQYYYSWGQGTQVSVSS	high polyreactivity
QVQLVESGGGLLKAGGSLRLSCAASGFTVDGYGMGWYRQAPGKERELVAVITSGGSTKYADSVKGRYTISRDNAKITVYLQMKSLKPEDTAVYYCNVVGGRYLYSAYDYWGQGTQVTVSS	low polyreactivity
QVQLVESGGGLVQAGGSLRLSCAASGRTFGGYAMGWYRQAPGKERELVATISYSSGSTYYADSVKGRFTISRDNAKNTVYLQLNSLKTEDTAVYYCAAEYRSRSWRMDYWGQGTQVTVSS	high polyreactivity
QVQLVESGGGLVQAGGSLRLSCAASGNTFNDYAMGWYRQAPGKERELVASISSGGSTYYADSVKGRFTISRDNAKNTVYLQMNSLKPEDTAVYYCAAEWHYIYAYDYWGQGTQVTVSS	low polyreactivity
QLQHVESWGGLVQAGGSLRLSCAASGRTFRANDKRSYRQAPGKQSELVAAISQSGGSRYYADSVKGRFTISRDNAKNTVYLQLNSLKPEDTAVYYCNALGRISNHTLYDYWGQGTQVTVSS	low polyreactivity
QDQLVESGRGLDQAGGSLRLICAASGRIFDRYALGWYRQAPGTERELVAAISWNTGSTYYADSVKGRFTISRDNAKNTVYLQMNSLKPEDTAVYYCAAAVRPYKRQDDYWGQGTQVTVSS	high polyreactivity
QVQLVESGGGLVQAGGSLRLSSAASGFTLYRNAMGWNRQAPGKEREFVASITRSGGSTSYADSVKGRFTISRDNAKNTVYLQMNSLKPEDTAVYYCAAAYEYYRWPSEYNYWGQGTQVTVSS	low polyreactivity
QVQLVESGGGLVQAGGSLRLSCAASGRTLGKYAMGWYRQAPGKERELVAAIRWTGGNTYYADSVKGRFTISRDNAKNTVYLQMNSLKPEDPAGYYCNAVSFGRARHGGPVYGYDYWGQGTQVTVSS	high polyreactivity
QVQLVESGGGLVQAGGSLRLSCAASGGIFYDYTMGWYRQAPGKERELVAVISSSGSTYYADSVKGRFTISRDNAKNTVYLLMNSLKPEDTAVYYCNALGWYGDYDYWGQGTQVTVSS	low polyreactivity
QVQLVESGGGLVQAGGSLRLSCAASGKTFVYYTMGWYRQAPGKERELVAAISYSGGSTYYADSVKGRFTLSRDNAKNTVYLQMNSLKPEDTAVYYCAKQVADRYDYWGQGTQVTVSS	low polyreactivity
QVQLVESGGGLVQAGGSLRLSCAASGITFFDYAMGWSRQAPGKERELVAAIDLSDGRTYYADSVKGRFTISRDNAKNTFYLQMNSLKPEDTAVYYCAAVSTSLYWAGYDYWGQGTQVTVSS	low polyreactivity
QVQLVESGGGLVQAGGSLRLSCAASGLTFPYYVMGWYRQAPGKERELVAAISSSGGSTYYADSVKGRFTISRDNAKNTVYLQMNSLKPEDTAVYYCNALGHFSKIATYDYWGQGTQVTVSS	low polyreactivity
QVQLVESGGGLVQAGGSLRLSCAASGSIYRYTMGWYRQAPGKERELVASISLSGGRTYYADSVKGRFTISRDNAKNTVYLQMNSLKPEDTAVYDCGTDNRYRSSGQWIRRGYWGQGTQVTVSS	high polyreactivity

Sequence	polyreactivity (PSR sort gate)
QVQLVESGGGLVQAGGSLRLSCAFYYGMGWYRQAPGKERELVAAITLGGGSTYYADSVKGRFTISRDNAKNTVYLQMNSLKPEDTAVYYCNVTDVTEPSLIDGYYWGQGTQVTVSS	low polyreactivity
QVQLVESGGGLVQAGGSLRLSCAASGSIFYTNAMGWYRQAPGKERELVAAIRWSGGRTYYADSVKGRFTISRDNAKNSVYLQMNSLKPEDTAVYYCNKVPRTPIPYKYGYWGQGTQVTVSS	high polyreactivity
QVQLVESGGGIVQAGGSLRLSCAASGRTFVLNALGWYRQAPGKERELVAAITLGGGSTYADSVKGRFTISRDNAQNTVYLQMNSLKPEDTAVYYCAADFHYPDFEYWGQGTQVTVSS	low polyreactivity
QVQLVESGGGLVQAGGSLRLSCAASGITLFYYAMGWYRQAPGKERELVAVISASGGSTYYADSVKGRFTISRDNAKNTVYIQMNSLKPEDTAVYYCAAVAYWRSSSWYYYWGQGTQVTVSS	high polyreactivity
QVQLVESGGGLVQAGGILRLSCAASGLIFANNAMGWYRQAPGKERELVAAITGGGDGTYYADYVKGRFTISRDNAKNNVYFQMNSLKPEDTAVYYCAADYKYLGSEYCYWGQGTQVTVSS	low polyreactivity
QVQLVDSGGGLVQAGGSLRLSCAASGRTFGYYAMGWYRQAPGKERELVAAISGSGGSTYYADSVKGRFTISRDNAKNTVYLQMNSLIPEDTAVYYCIVYPPYAMDYWGQGTQVTVSS	high polyreactivity
QVQLVESGGGLVQAGGSLRLSCAASGRIFSLNVMGWYRPAPGKERELVATIRGRGTSTYYADSVKGRFTISRDNAKNTVYLQMNSLKPEDTAVYYCAARGHGAYGYWGQGTQVTVSS	low polyreactivity
QVQLVDSGGCLVQAGGSLRLSCDASGRISQNAMGWYRQAPGKERELVAAITFSGGSTYYADSVKGRFTISRDNAKNTVYLQMNSLKPEDTAVYYCNVRQYTDGLKYDYWGQGTQVTVSS	low polyreactivity
QVQLVESGGGLVQAGGSLRLSCAASGRIFRKNARGWYRQAPGKEREFVAAIRLSGGRTFYADSVKGRFTISRDNAKNTVYLQMNSLKPEDTAVYYCAAETVNGKHDYWGQGTQVTVSS	high polyreactivity
QVQLVESGGGLVQAGGSLRLSCAASGSNVYIYAMGWYRQAPGKERELVASINSGGSTNYADSVKGRFTISRDNAKNTVYLQMNSLKPEDTAVYYCNADVYDTYSPLGYYYWGQGTQVTVSS	low polyreactivity
QVQLVESGGGLVQAGGSLRLSCAASGSIFGDYVMGWNRQAPGKERELVAAINRGGSTYYADSVKGRFTISRDNAKNTVYLQMNSLKPEDTAVYYCAAGYPSWYYGYPYDSWGQGSQVTVSS	low polyreactivity
QVQLVESWGGLVQAGGSLRLSCAASGITFDGNAMGWYRQAPGKERELVAGISGSGGGTYYADSVKGRFTISRDNAKNTVYLHMNSLKPEDTAVYYCAADTSTSHAYDYWGQGTQVTVSS	low polyreactivity
QVHLVESGGGLVQAGGSLRLSCAASGSTFRFYAMGWYRQAPGKERELVATISRTGSTNYADSVKGRFTISRDNAKNTVYLQMNSLKPEDTAVYYCAAQRRRYPGYVQDDYWGQGTQVTVSS	high polyreactivity
QVQLVESGGGLVQAGASLRLSCAASGSTFYFYTMGWYRQAPWKERELVAAITRDGSTYYADSVKGRFTISRDNAKNTVYLQMNSLKPEDTAVYYCNALRWAYKFSAYYYWGQGTQVSVSS	low polyreactivity
QVQLVESGGGLVQAGGSLRLSCAASGRIFYVYAMGWYRQAPGKERELVATISWSAGITYYADSVKGRFTISRDNAKNTVYLQMNSMKPEDTAVYYCAKVGRYTYSGQYDYWGQGTQVTVSS	high polyreactivity
QVQLVESGGGLVQAGGSLRLICAASGRSFQYYVMGWYSQAPGKEWELVAAMNRRGTSTYYADSVKGRFTISRDNAKNTVYLQMNSLKPEDTAVYYCAAVDRDYARTTTYDYWGQGTQVSVSS	high polyreactivity
QVQLVESGGGLVQAGGSLRLSCAASGSSLTRNDMGWHRLAPGKERELVAAISFSGSDTYYADSVKGRFTISRDNAKNTVYLQMNSLKPEDTAVYYCAAEYGGYSKYLFIGRYYWGQGTQVTVSS	low polyreactivity
QVQLVESGGGLVQAGGSLRLSCAASGLIFRRYAMGWYRQAPGKERELVATINSGGSTNYADSVKGRFTISRDNAKNTVYLQMNSLKPEDTAVYYCAAKKFRRFTKWYDYWGQGTQVTVSS	high polyreactivity
QVQLVESGGGLVQAGGSLRLSCAASGSTFRVNVMGWYRQATGKERELVAAITTSGGSTYYADSVKGRFSISRDNAQNTVYFQMNSLKPEDTAVYYCNTTYPSGWGPDMDYWGQGTQVTVSS	low polyreactivity
QVQLVESGGGLVQAGGSLRLSCAASGSIFGWNTMGWYRQAPGKERELVASISRRGGSTHYADSVKGRFTISRDNAKNTVYLQMNSLKPEDTAVYYCAKVRYQGNGGYYWGQGTQVTVSS	high polyreactivity
QVQLVESGGGLVQAGGSLRLSCAASGRTIIRNTMGWYRQAPGKERELVARISYGGGRTYYADSVKGRFTISRDNAKNTVYLQMNSLKPEDTAVYYCAKVTPPFWGGYWYNYWGQGTQVTVSS	high polyreactivity
